# Results as given in publication PMC9482650, “Quantitative fragmentomics allow affinity mapping of interactomes” (Nature Communications, 2022).
# T1: SNTG1, Q9NSN8
# T1 sequence (Q9NSN8 52-150, limits assumed, looked up): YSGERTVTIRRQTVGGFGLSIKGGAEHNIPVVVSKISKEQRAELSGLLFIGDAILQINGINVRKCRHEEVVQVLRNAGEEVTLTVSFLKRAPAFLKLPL
# T2: PTPN13_1, Q12923
# T2 sequence (Q12923 1088-1188, limits assumed, looked up): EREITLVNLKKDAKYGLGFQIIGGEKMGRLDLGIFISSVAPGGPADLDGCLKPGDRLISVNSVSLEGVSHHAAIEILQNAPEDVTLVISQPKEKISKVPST
# T3: MPDZ_5, O75970
# T3 sequence (O75970 695-796, limits assumed, looked up): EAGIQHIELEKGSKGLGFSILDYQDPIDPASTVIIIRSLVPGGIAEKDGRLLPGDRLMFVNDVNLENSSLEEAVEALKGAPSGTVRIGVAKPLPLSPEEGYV
# T4: DFNB31_1, Q9P202
# T4 sequence (Q9P202 135-233, limits assumed, looked up): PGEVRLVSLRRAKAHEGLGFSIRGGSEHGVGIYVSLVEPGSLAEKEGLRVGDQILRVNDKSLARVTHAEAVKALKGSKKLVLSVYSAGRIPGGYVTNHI
# T5: NHERF3_3, Q5T2W1
# T5 sequence (Q5T2W1 238-333, limits assumed, looked up): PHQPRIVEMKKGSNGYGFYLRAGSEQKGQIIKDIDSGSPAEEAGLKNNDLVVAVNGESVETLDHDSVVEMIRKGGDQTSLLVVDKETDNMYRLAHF
# T6: RADIL, Q96JH8
# T6 sequence (Q96JH8 971-1071, limits assumed, looked up): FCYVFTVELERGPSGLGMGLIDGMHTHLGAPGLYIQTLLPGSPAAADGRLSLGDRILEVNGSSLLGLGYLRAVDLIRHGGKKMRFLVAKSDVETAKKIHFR
# T7: LIN7A, O14910
# T7 sequence (O14910 103-200, limits assumed, looked up): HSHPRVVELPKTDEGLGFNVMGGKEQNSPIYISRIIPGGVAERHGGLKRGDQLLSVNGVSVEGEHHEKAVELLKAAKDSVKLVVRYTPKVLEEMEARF
# T8: RHPN1, Q8TCX5
# T8 sequence (Q8TCX5 508-602, limits assumed, looked up): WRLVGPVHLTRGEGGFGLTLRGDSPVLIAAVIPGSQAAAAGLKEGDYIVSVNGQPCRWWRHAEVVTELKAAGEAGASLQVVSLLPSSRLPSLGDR
# T9: DLG3_1, Q92796
# T9 sequence (Q92796 125-227, limits assumed, looked up): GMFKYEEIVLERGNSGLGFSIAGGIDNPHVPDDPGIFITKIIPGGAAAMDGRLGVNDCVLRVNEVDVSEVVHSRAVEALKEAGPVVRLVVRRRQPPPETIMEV
# T10: DLG3_2, Q92796
# T10 sequence (Q92796 221-321, limits assumed, looked up): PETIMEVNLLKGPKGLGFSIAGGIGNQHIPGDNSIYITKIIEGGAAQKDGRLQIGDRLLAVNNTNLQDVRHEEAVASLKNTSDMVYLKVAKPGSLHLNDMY
# T11: SNTG2, Q9NY99
# T11 sequence (Q9NY99 68-166, limits assumed, looked up): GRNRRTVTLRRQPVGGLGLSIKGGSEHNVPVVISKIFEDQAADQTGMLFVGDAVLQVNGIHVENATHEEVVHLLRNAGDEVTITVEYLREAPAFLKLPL
# Target: T1, SNTG1, Q9NSN8
# Assay: holdup assay
# Parameters: key: below the threshold = too weak to quantify, mostly under pKd 3.1 to 4
# Conditions: plain residues with an end cap or a label only (N-terminal biotin on a linker: ado-ado)
row,Binder,pKd
1,"TGLWKSETTV [ADGRA2, Q96PE1]",4.21

# Target: NHERF4_1, Q86UT5-2
# Sequence (Q86UT5 other isoform, or with tags, fused parts or gaps): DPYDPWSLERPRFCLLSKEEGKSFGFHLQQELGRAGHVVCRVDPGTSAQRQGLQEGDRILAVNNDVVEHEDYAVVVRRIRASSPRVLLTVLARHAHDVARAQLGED
# Assay: holdup assay
# Parameters: key: below the threshold = too weak to quantify, mostly under pKd 3.1 to 4
# Conditions: plain residues with an end cap or a label only (N-terminal biotin on a linker: ado-ado)
row,Binder,pKd
1,"TGLWKSETTV [ADGRA2, Q96PE1]",below the threshold

# Target: MAGI2_4, Q86UL8
# Sequence (Q86UL8 772-865): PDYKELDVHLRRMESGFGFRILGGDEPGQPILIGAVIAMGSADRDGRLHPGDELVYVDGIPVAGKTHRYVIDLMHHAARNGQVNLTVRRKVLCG
# Assay: holdup assay
# Parameters: key: below the threshold = too weak to quantify, mostly under pKd 3.1 to 4
# Conditions: plain residues with an end cap or a label only (N-terminal biotin on a linker: ado-ado)
row,Binder,pKd
1,"TGLWKSETTV [ADGRA2, Q96PE1]",4.88

# Target: T2, PTPN13_1, Q12923
# Assay: holdup assay
# Parameters: key: below the threshold = too weak to quantify, mostly under pKd 3.1 to 4
# Conditions: plain residues with an end cap or a label only (N-terminal biotin on a linker: ado-ado)
row,Binder,pKd
1,"TGLWKSETTV [ADGRA2, Q96PE1]",below the threshold

# Target: AHNAK1, Q09666
# Sequence (Q09666 4-100): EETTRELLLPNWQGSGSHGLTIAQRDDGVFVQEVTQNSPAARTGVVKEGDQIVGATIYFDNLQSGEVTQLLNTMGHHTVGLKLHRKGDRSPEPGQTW
# Assay: holdup assay
# Parameters: key: below the threshold = too weak to quantify, mostly under pKd 3.1 to 4
# Conditions: plain residues with an end cap or a label only (N-terminal biotin on a linker: ado-ado)
row,Binder,pKd
1,"TGLWKSETTV [ADGRA2, Q96PE1]",below the threshold

# Target: T3, MPDZ_5, O75970
# Assay: holdup assay
# Parameters: key: below the threshold = too weak to quantify, mostly under pKd 3.1 to 4
# Conditions: plain residues with an end cap or a label only (N-terminal biotin on a linker: ado-ado)
row,Binder,pKd
1,"TGLWKSETTV [ADGRA2, Q96PE1]",below the threshold

# Target: PTPN3, P26045
# Sequence (P26045 505-587): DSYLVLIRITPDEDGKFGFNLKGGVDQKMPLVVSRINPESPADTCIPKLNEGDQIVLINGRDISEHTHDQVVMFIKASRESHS
# Assay: holdup assay
# Parameters: key: below the threshold = too weak to quantify, mostly under pKd 3.1 to 4
# Conditions: plain residues with an end cap or a label only (N-terminal biotin on a linker: ado-ado)
row,Binder,pKd
1,"TGLWKSETTV [ADGRA2, Q96PE1]",4.54

# Target: Inadl_3, Q8NI35
# Sequence (Q8NI35 359-469): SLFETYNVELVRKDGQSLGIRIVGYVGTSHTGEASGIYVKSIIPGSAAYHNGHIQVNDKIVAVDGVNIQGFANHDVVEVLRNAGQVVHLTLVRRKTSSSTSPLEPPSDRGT
# Assay: holdup assay
# Parameters: key: below the threshold = too weak to quantify, mostly under pKd 3.1 to 4
# Conditions: plain residues with an end cap or a label only (N-terminal biotin on a linker: ado-ado)
row,Binder,pKd
1,"TGLWKSETTV [ADGRA2, Q96PE1]",3.97

# Target: LIMK2, P53671
# Sequence (P53671 143-248): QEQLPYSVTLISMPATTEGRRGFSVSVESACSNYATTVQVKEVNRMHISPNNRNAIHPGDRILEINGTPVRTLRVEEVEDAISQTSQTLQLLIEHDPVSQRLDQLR
# Assay: holdup assay
# Parameters: key: below the threshold = too weak to quantify, mostly under pKd 3.1 to 4
# Conditions: plain residues with an end cap or a label only (N-terminal biotin on a linker: ado-ado)
row,Binder,pKd
1,"TGLWKSETTV [ADGRA2, Q96PE1]",below the threshold

# Target: T4, DFNB31_1, Q9P202
# Assay: holdup assay
# Parameters: key: below the threshold = too weak to quantify, mostly under pKd 3.1 to 4
# Conditions: plain residues with an end cap or a label only (N-terminal biotin on a linker: ado-ado)
row,Binder,pKd
1,"TGLWKSETTV [ADGRA2, Q96PE1]",3.64

# Target: T5, NHERF3_3, Q5T2W1
# Assay: holdup assay
# Parameters: key: below the threshold = too weak to quantify, mostly under pKd 3.1 to 4
# Conditions: plain residues with an end cap or a label only (N-terminal biotin on a linker: ado-ado)
row,Binder,pKd
1,"TGLWKSETTV [ADGRA2, Q96PE1]",below the threshold

# Target: T6, RADIL, Q96JH8
# Assay: holdup assay
# Parameters: key: below the threshold = too weak to quantify, mostly under pKd 3.1 to 4
# Conditions: plain residues with an end cap or a label only (N-terminal biotin on a linker: ado-ado)
row,Binder,pKd
1,"TGLWKSETTV [ADGRA2, Q96PE1]",3.95

# Target: Inadl_10, Q8NI35
# Sequence (Q8NI35 1673-1763): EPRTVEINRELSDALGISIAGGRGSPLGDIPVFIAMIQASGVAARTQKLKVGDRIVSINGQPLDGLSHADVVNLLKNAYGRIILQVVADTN
# Assay: holdup assay
# Parameters: key: below the threshold = too weak to quantify, mostly under pKd 3.1 to 4
# Conditions: plain residues with an end cap or a label only (N-terminal biotin on a linker: ado-ado)
row,Binder,pKd
1,"TGLWKSETTV [ADGRA2, Q96PE1]",below the threshold

# Target: TJP1_3, Q07157
# Sequence (Q07157 416-512): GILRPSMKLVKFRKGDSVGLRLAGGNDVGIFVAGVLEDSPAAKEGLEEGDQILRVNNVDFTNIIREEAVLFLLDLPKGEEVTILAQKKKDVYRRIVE
# Assay: holdup assay
# Parameters: key: below the threshold = too weak to quantify, mostly under pKd 3.1 to 4
# Conditions: plain residues with an end cap or a label only (N-terminal biotin on a linker: ado-ado)
row,Binder,pKd
1,"TGLWKSETTV [ADGRA2, Q96PE1]",below the threshold

# Target: MAGI1_2, Q96QZ7
# Sequence (Q96QZ7 456-580): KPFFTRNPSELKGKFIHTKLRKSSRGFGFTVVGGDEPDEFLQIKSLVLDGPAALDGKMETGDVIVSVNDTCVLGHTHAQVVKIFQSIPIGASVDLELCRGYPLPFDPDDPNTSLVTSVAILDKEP
# Assay: holdup assay
# Parameters: key: below the threshold = too weak to quantify, mostly under pKd 3.1 to 4
# Conditions: plain residues with an end cap or a label only (N-terminal biotin on a linker: ado-ado)
row,Binder,pKd
1,"TGLWKSETTV [ADGRA2, Q96PE1]",4.92

# Target: T7, LIN7A, O14910
# Assay: holdup assay
# Parameters: key: below the threshold = too weak to quantify, mostly under pKd 3.1 to 4
# Conditions: plain residues with an end cap or a label only (N-terminal biotin on a linker: ado-ado)
row,Binder,pKd
1,"TGLWKSETTV [ADGRA2, Q96PE1]",3.93

# Target: GORASP2, Q9H8Y8
# Assay: holdup assay
# Parameters: key: below the threshold = too weak to quantify, mostly under pKd 3.1 to 4
# Conditions: plain residues with an end cap or a label only (N-terminal biotin on a linker: ado-ado)
row,Binder,pKd
1,"TGLWKSETTV [ADGRA2, Q96PE1]",3.9

# Target: T8, RHPN1, Q8TCX5
# Assay: holdup assay
# Parameters: key: below the threshold = too weak to quantify, mostly under pKd 3.1 to 4
# Conditions: plain residues with an end cap or a label only (N-terminal biotin on a linker: ado-ado)
row,Binder,pKd
1,"TGLWKSETTV [ADGRA2, Q96PE1]",4.33

# Target: LNX1_2, Q8TBB1
# Sequence (Q8TBB1 371-470): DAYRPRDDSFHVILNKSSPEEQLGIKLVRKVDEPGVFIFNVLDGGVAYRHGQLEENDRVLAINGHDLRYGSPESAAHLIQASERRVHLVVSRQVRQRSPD
# Assay: holdup assay
# Parameters: key: below the threshold = too weak to quantify, mostly under pKd 3.1 to 4
# Conditions: plain residues with an end cap or a label only (N-terminal biotin on a linker: ado-ado)
row,Binder,pKd
1,"TGLWKSETTV [ADGRA2, Q96PE1]",3.89

# Target: FRMPD2_2, Q68DX3
# Sequence (Q68DX3 944-1038): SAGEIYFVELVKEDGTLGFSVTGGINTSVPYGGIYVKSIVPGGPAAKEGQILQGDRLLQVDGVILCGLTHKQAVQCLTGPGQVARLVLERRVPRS
# Assay: holdup assay
# Parameters: key: below the threshold = too weak to quantify, mostly under pKd 3.1 to 4
# Conditions: plain residues with an end cap or a label only (N-terminal biotin on a linker: ado-ado)
row,Binder,pKd
1,"TGLWKSETTV [ADGRA2, Q96PE1]",3.51

# Target: FRMPD2_3, Q68DX3
# Sequence (Q68DX3 1073-1166): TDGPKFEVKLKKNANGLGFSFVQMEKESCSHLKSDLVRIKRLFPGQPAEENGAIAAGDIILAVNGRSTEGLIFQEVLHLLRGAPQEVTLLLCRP
# Assay: holdup assay
# Parameters: key: below the threshold = too weak to quantify, mostly under pKd 3.1 to 4
# Conditions: plain residues with an end cap or a label only (N-terminal biotin on a linker: ado-ado)
row,Binder,pKd
1,"TGLWKSETTV [ADGRA2, Q96PE1]",below the threshold

# Target: T9, DLG3_1, Q92796
# Assay: holdup assay
# Parameters: key: below the threshold = too weak to quantify, mostly under pKd 3.1 to 4
# Conditions: plain residues with an end cap or a label only (N-terminal biotin on a linker: ado-ado)
row,Binder,pKd
1,"TGLWKSETTV [ADGRA2, Q96PE1]",4.43

# Target: Inadl_9, Q8NI35
# Sequence (Q8NI35 1530-1615): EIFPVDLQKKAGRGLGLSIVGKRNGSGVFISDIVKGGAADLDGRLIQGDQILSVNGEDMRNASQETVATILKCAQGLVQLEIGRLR
# Assay: holdup assay
# Parameters: key: below the threshold = too weak to quantify, mostly under pKd 3.1 to 4
# Conditions: plain residues with an end cap or a label only (N-terminal biotin on a linker: ado-ado)
row,Binder,pKd
1,"TGLWKSETTV [ADGRA2, Q96PE1]",3.75

# Target: T10, DLG3_2, Q92796
# Assay: holdup assay
# Parameters: key: below the threshold = too weak to quantify, mostly under pKd 3.1 to 4
# Conditions: plain residues with an end cap or a label only (N-terminal biotin on a linker: ado-ado)
row,Binder,pKd
1,"TGLWKSETTV [ADGRA2, Q96PE1]",5.07

# Target: T11, SNTG2, Q9NY99
# Assay: holdup assay
# Parameters: key: below the threshold = too weak to quantify, mostly under pKd 3.1 to 4
# Conditions: plain residues with an end cap or a label only (N-terminal biotin on a linker: ado-ado)
row,Binder,pKd
1,"TGLWKSETTV [ADGRA2, Q96PE1]",4.14

# Target: SCRIB_2, Q14160
# Sequence (Q14160 857-960): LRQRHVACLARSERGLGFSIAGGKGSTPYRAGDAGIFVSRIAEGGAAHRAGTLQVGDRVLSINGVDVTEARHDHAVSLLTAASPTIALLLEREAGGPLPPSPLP
# Assay: holdup assay
# Parameters: key: below the threshold = too weak to quantify, mostly under pKd 3.1 to 4
# Conditions: plain residues with an end cap or a label only (N-terminal biotin on a linker: ado-ado)
row,Binder,pKd
1,"TGLWKSETTV [ADGRA2, Q96PE1]",4.31

# Target: DLG1_3, Q12959
# Sequence (Q12959 457-571): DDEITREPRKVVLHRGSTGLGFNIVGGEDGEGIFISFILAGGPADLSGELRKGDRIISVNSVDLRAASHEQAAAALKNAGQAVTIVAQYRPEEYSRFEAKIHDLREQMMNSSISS
# Assay: holdup assay
# Parameters: key: below the threshold = too weak to quantify, mostly under pKd 3.1 to 4
# Conditions: plain residues with an end cap or a label only (N-terminal biotin on a linker: ado-ado)
row,Binder,pKd
1,"TGLWKSETTV [ADGRA2, Q96PE1]",4.38
